Results reported in article PMC8999790, “The Transition of Photoreceptor Guanylate Cyclase Type 1 to the Active State” (International Journal of Molecular Sciences, 2022).

Assays:
Assay type in all cases: biochemical, Homo sapiens
[1] = substrate: Nc1nc2c(ncn2[C@@H]2O[C@H](COP(=O)(O)OP(=O)(O)OP(=O)(O)O)[C@@H](O)[C@H]2O)c(=O)[nH]1; experiment: cells, lysate or membranes; conditions: Mg-GTP, pH 7.2, 30 °C, half-maximal saturation
[2] = substrate: Nc1nc2c(ncn2[C@@H]2O[C@H](COP(=O)(O)OP(=O)(O)OP(=O)(O)O)[C@@H](O)[C@H]2O)c(=O)[nH]1; experiment: cGMP formation by HPLC in HEK293 membranes, Hill fit; conditions: Mg-GTP, 5 uM GCAP1, <=10 nM free Ca2+ (2 mM EGTA), pH 7.2, 30 °C, half-maximal saturation, Hill h 1.75
Source text: cGMP formation by HPLC in HEK293 membranes, Hill fit on human GC-E + GCAP1

[3] = substrate: Nc1nc2c(ncn2[C@@H]2O[C@H](COP(=O)(O)OP(=O)(O)OP(=O)(O)O)[C@@H](O)[C@H]2O)c(=O)[nH]1; experiment: as above; conditions: Mg-GTP, no GCAPs, <=10 nM free Ca2+ (2 mM EGTA), pH 7.2, 30 °C, half-maximal saturation, Hill h 1.58
Source text: cGMP formation by HPLC in HEK293 membranes, Hill fit on human GC-E (no GCAPs)

[4] = substrate: Nc1nc2c(ncn2[C@@H]2O[C@H](COP(=O)(O)OP(=O)(O)OP(=O)(O)O)[C@@H](O)[C@H]2O)c(=O)[nH]1; experiment: as above; conditions: Mg-GTP, 5 uM GCAP2, <=10 nM free Ca2+ (2 mM EGTA), pH 7.2, 30 °C, half-maximal saturation, Hill h 1.76
Source text: cGMP formation by HPLC in HEK293 membranes, Hill fit on human GC-E + GCAP2

[5] = 5 uM GCAP1, <=10 nM free Ca2+ (2 mM EGTA), Hill h 1.75, apparent KM
[6] = no GCAPs, <=10 nM free Ca2+ (2 mM EGTA), Hill h 1.58, apparent KM
[7] = 5 uM GCAP2, <=10 nM free Ca2+ (2 mM EGTA), Hill h 1.76, apparent KM

B1: human GC-E + GCAP1 (Homo sapiens; V902L) (protein)
chain: AVFTVGVLGPWACDPIFSRARPDLAARLAAARLNRDPGLAGGPRFEVALLPEPCRTPGSLGAVSSALARVSGLVGPVNPAACRPAELLAEEAGIALVPWGCPWTQAEGTTAPAVTPAADALYALLRAFGWARVALVTAPQDLWVEAGRSLSTALRARGLPVASVTSMEPLDLSGAREALRKVRDGPRVTAVIMVMHSVLLGGEEQRYLLEAAEELGLTDGSLVFLPFDTIHYALSPGPEALAALANSSQLRRAHDAVLTLTRHCPSEGSVLDSLRRAQERRELPSDLNLQQVSPLFGTIYDAVFLLARGVAEARAAAGGRWVSGAAVARHIRDAQVPGFCGDLGGDEEPPFVLLDTDAAGDRLFATYMLDPARGSFLSAGTRMHFPRGGSAPGPDPSCWFDPNNICGGGLEPGLVFLGFLLVVGMGLAGAFLAHYVRHRLLHMQMVSGPNKIILTVDDITFLHPHGGTSRKVAQGSRSSLGARSMSDIRSGPSQHLDSPNIGVYEGDRVWLKKFPGDQHIAIRPATKTAFSKLQELRHENVALYLGLFLARGAEGPAALWEGNLAVVSEHCTRGSLQDLLAQREIKLDWMFKSSLLLDLIKGIRYLHHRGVAHGRLKSRNCIVDGRFVLKITDHGHGRLLEAQKVLPEPPRAEDQLWTAPELLRDPALERRGTLAGDVFSLAIIMQEVVCRSAPYAMLELTPEEVVQRVRSPPPLCRPLVSMDQAPVECILLMKQCWAEQPELRPSMDHTFDLFKNINKGRKTNIIDSMLRMLEQYSSNLEDLIRERTEELELEKQKTDRLLTQMLPPSVAEALKTGTPVEPEYFEQVTLYFSDIVGFTTISAMSEPIEVLDLLNDLYTLFDAIIGSHDVYKVETIGDAYMVASGLPQRNGQRHAAEIANMSLDILSAVGTFRMRHMPEVPVRIRIGLHSGPCVAGVVGLTMPRYCLFGDTVNTASRMESTGLPYRIHVNLSTVGILRALDSGYQVELRGRTELKGKGAEDTFWLVGRRGFNKPIPKPPDLQPGSSNHGISLQEIPPERRRKLEKARPGQFS
notes: full-length GC-E transiently expressed in HEK293, membrane suspension
Km [1, 5]: 0.20 mM
kcat/Km [1, 5]: 4000 M⁻¹ s⁻¹
K0.5 [2]: 0.20 mM
kcat/Km [2]: 4000 M⁻¹ s⁻¹

B2: human GC-E (no GCAPs) (Homo sapiens; V902L) (protein)
chain: B1 chain
notes: full-length GC-E transiently expressed in HEK293, membrane suspension; no GCAP added
K0.5 [3]: 0.37 mM
kcat/Km [3]: 2100 M⁻¹ s⁻¹
Km [1, 6]: 0.34 mM
kcat/Km [1, 6]: 2100 M⁻¹ s⁻¹

B3: human GC-E + GCAP2 (Homo sapiens; V902L) (protein)
chain: B1 chain
notes: as for B1
Km [1, 7]: 0.31 mM
kcat/Km [1, 7]: 2200 M⁻¹ s⁻¹
K0.5 [4]: 0.36 mM
kcat/Km [4]: 2200 M⁻¹ s⁻¹
